Data taken from the supplement of paper PMC9732359.
± gives the uncertainty stated by the source.

Experiment: protein stability index of a GFP-peptide fusion (yeast GPS) (PSI 1-4); higher = more stable; sorted into four equal gates, so the index is relative within each strain
Method in brief: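 Each library plasmid carries Cherry plus GFP with a tiled 17-residue yeast protein peptide fused downstream, and the pooled library was carried in yeast. Mid-log cultures in leucine-free medium were sorted into four equal gates by GFP/Cherry ratio. Reads from Illumina sequencing of PCR-amplified plasmids from each gate were assigned to strains by barcodes. Per peptide, the protein stability index was computed as the summed products of gate read frequency and gate number.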

Sequence	protein stability index (doa10∆)	protein stability index (pdr5∆)	protein stability index (san1∆)	protein stability index (ubr1∆)
LRRTTQRVFDETEQEYS [YDL116W/NUP84]	3.21 ± 0.064	3.03 ± 0.046	3.2 ± 0.061	3.19 ± 0.043
LRTEYGWDSLASRNVWS [SNU114]	2.85 ± 0.099	3.11 ± 0.12	3.4 ± 0.099	3.38 ± 0.076
LRYVKQIEGPFLIIVPK [ISW2]	2.15 ± 0.081	2.3 ± 0.059	2.29 ± 0.065	2.34 ± 0.045
LSALDHYERTQTKENKR [RPN8]	2.91 ± 0.077	2.82 ± 0.087	2.71 ± 0.073	2.68 ± 0.057
LSEDKKKLDYVLALKVE [RPS9A]	1.31 ± 0.17	2.22 ± 0.23	1.41 ± 0.16	1.49 ± 0.29
LSETNGLHKFVKGDLLQ [PRE10]	–	3.28 ± 0.23	–	3.48 ± 0.11
LSIPGKSTPEGTLWAHV [SNU114]	2.91 ± 0.065	3.09 ± 0.064	2.9 ± 0.059	3.03 ± 0.04
LSKEVPFSYLIDETMMD [SRB5]	2.03 ± 0.12	2.36 ± 0.066	2.22 ± 0.13	2.55 ± 0.048
LSLEEVEGHLFEIIDEA [FAS1]	3.01 ± 0.11	3.29 ± 0.1	3.09 ± 0.063	3.07 ± 0.069
LSLNLGDYGSAKCNSLL [POP5]	2.47 ± 0.061	2.94 ± 0.077	2.57 ± 0.081	2.46 ± 0.093
LSNCLANARDFGEWAGM [BRR2]	2.35 ± 0.089	2.41 ± 0.095	2.28 ± 0.17	2.45 ± 0.07
LSRGYTCPGLSLTDVAF [ECM29]	3.24 ± 0.12	3.19 ± 0.084	2.29 ± 0.11	2.68 ± 0.12
LSRLQKSGRINGFHGRL [SMC4]	3.26 ± 0.15	3.57 ± 0.15	3.29 ± 0.081	3.19 ± 0.064
LSRYVKWPEYVRLQRQK [RPL8B]	–	2.71 ± 0.24	–	–
LSSLKSFAIYSSTIDAP [SRB8]	1.71 ± 0.038	1.57 ± 0.034	1.83 ± 0.064	1.73 ± 0.038
LSSNITFDGKPTATPSP [YMR153W/NUP53]	2.91 ± 0.057	3.03 ± 0.058	3 ± 0.043	2.91 ± 0.046
LSSVALRSDFYILANHY [YJL039C/NUP192]	2.06 ± 0.15	2.28 ± 0.13	1.59 ± 0.24	2 ± 0.098
LSTLEPSTSITLAERQQ [RPN9]	2.9 ± 0.055	2.91 ± 0.058	2.58 ± 0.062	2.86 ± 0.036
LSWCPSRFSPEKLAVSA [YGL100W/SEH1]	2.48 ± 0.078	2.57 ± 0.11	2.81 ± 0.14	–
LTIGVKFFMKHGLILEL [SRB5]	1.71 ± 0.05	1.62 ± 0.052	1.65 ± 0.062	1.94 ± 0.033
LTITKAAGANVDNVWAD [RPP1B]	2.63 ± 0.089	2.26 ± 0.063	2.78 ± 0.15	2.85 ± 0.059
LTKAAIVQIDATPFRQW [RPS8A]	2.132 ± 0.016	2.453 ± 0.017	2.347 ± 0.021	2.362 ± 0.014
LTKKEKKEANLFPEQQN [RPL6A]	3.08 ± 0.072	3.2 ± 0.072	3.25 ± 0.06	3.16 ± 0.048
LTKKEKKEANLFPEQQT [RPL6B]	3.08 ± 0.073	3.21 ± 0.072	3.25 ± 0.06	3.15 ± 0.049
LTKLNEDDLVGVVQMVT [TAF14]	2.89 ± 0.086	3.18 ± 0.074	3.02 ± 0.065	2.98 ± 0.063
LTMANLPSWSLGKWYSK [ARP7]	3.17 ± 0.15	3.28 ± 0.11	2.88 ± 0.17	2.85 ± 0.19

Sequence	protein stability index (doa10∆)	protein stability index (pdr5∆)	protein stability index (san1∆)	protein stability index (ubr1∆)
LTMHKIIQLILWSIHPS [SRB8]	1.62 ± 0.047	1.53 ± 0.047	1.61 ± 0.088	1.53 ± 0.044
LTRNAPLDSKDENFASV [SNF2]	3.04 ± 0.08	3.2 ± 0.079	3.07 ± 0.067	3.1 ± 0.074
LTVYLEPGHAADQEQAK [RPO21]	2.96 ± 0.14	2.68 ± 0.1	3.05 ± 0.081	3.13 ± 0.083
LVALLSRDLWCFSINDD [SSN2]	2.1 ± 0.076	1.71 ± 0.08	2.5 ± 0.098	2.69 ± 0.098
LVEEFMLLANISVARKI [DIS3]	1.3 ± 0.062	1.84 ± 0.092	1.77 ± 0.16	2.18 ± 0.055
LVEYGFDPSRIKDLKQR [SMC2]	2.04 ± 0.049	2.57 ± 0.074	2.16 ± 0.082	2.51 ± 0.064
LVFQLAKNFSAQKRVVS [SRB8]	1.69 ± 0.053	2.06 ± 0.072	1.86 ± 0.076	1.94 ± 0.058
LVGRKPAEHPFISAARY [RPC37]	2.23 ± 0.14	1.86 ± 0.074	2.08 ± 0.15	2.54 ± 0.084
LVHSEYLINGKRFKRKD [SRP68]	2.68 ± 0.16	2.79 ± 0.065	2.84 ± 0.076	2.67 ± 0.038
LVQEQVREFQRRLAFLG [BRR2]	2.07 ± 0.12	1.16 ± 0.14	1.04 ± 0.22	1.17 ± 0.087
LVQLSTMETKTLPEKKQ [SIR4]	2.88 ± 0.063	2.9 ± 0.069	2.72 ± 0.052	2.99 ± 0.059
LVRNGPNEHPGAKYVIR [RPO21]	2.91 ± 0.095	2.95 ± 0.1	2.76 ± 0.14	2.8 ± 0.084
LWPVAIGLIALSATGTR [YJR042W/NUP85]	1.75 ± 0.25	–	1.36 ± 0.23	–
LYAIKKVTLNKETQQYE [BRR2]	3.03 ± 0.15	3.21 ± 0.13	2.99 ± 0.094	3.36 ± 0.081
LYEIILAANYLNIKPLL [SKP1]	1.51 ± 0.046	1.33 ± 0.045	1.28 ± 0.11	1.46 ± 0.045
LYFPDDYPFTQLGYIEN [POP1]	2.71 ± 0.12	3.18 ± 0.074	3.1 ± 0.071	3.16 ± 0.068
LYGAPGTGKTLLAKAVA [RPT2]	1.77 ± 0.11	1.48 ± 0.12	–	1.58 ± 0.1
LYGVTICYNKKTEYVLN [REC8]	1.3 ± 0.058	1.3 ± 0.14	1.14 ± 0.13	1.34 ± 0.062
LYHLVIMKFQSLSDNDL [ECM29]	–	1.65 ± 0.25	–	3.28 ± 0.25
LYKEFFNEKFPSLIQEE [NUT1]	3 ± 0.13	3.19 ± 0.13	3.06 ± 0.059	3.2 ± 0.12
LYLQDSNDKFVHVQLLI [SRB8]	1.96 ± 0.055	2.06 ± 0.057	1.93 ± 0.066	2.17 ± 0.042
LYSIREDYELSPQAVSS [PRE1]	2.2 ± 0.13	2.83 ± 0.097	2.63 ± 0.062	2.38 ± 0.069
MAESTTLETIEIHPITF [RRP43]	3.04 ± 0.073	2.58 ± 0.047	3.06 ± 0.044	2.68 ± 0.04
MAFNLLGLLTPEVVELC [FAS2]	1.8 ± 0.085	1.56 ± 0.12	1.22 ± 0.22	2.47 ± 0.12
MAGLKDVVTREYTINLH [RPL31A]	3.02 ± 0.15	3.06 ± 0.14	3.01 ± 0.08	3.29 ± 0.16
